Experimental data as given in publication PMC3765158, “Structure Determination and Biochemical Characterization of a Putative HNH Endonuclease from Geobacter metallireducens GS-15” (PLoS ONE, 2013).

B1: Gmet_0936 protein (putative HNH endonuclease) from Geobacter metallireducens GS-15, with C-terminal LEH6 (enzyme, UniProt Q39X46 1-104, looked up)
chain: MNYFIVEVSEQEVKREKEKARELRRSQWWKNRIARGICHYCGEIFPPEELTMDHLVPVVRGGKSTRGNVVPACKECNNRKKYLLPVEWEEYLDSLESEPSDGEG
modifications: selenomethionine in place of methionine (selenomethionine-labeled)
notes: Gmet_0936, putative HNH endonuclease of Geobacter metallireducens GS-15; full-length gene in a pET21 derivative (pGmR87-21.1); molecular mass with tag 13.3 kDa; The SEC with static light scattering used a thawed aliquot of the crystallization stock (the same protein as in the crystal); also called Gme HNHE (H6); Gmet_0936 (H6); source: E. coli BL21 (DE3) pMGK, selenomethionine-labeled, purified …

Columns and labels:
[1] = target: non-His-tagged Gme HNHE (Gmet_0936 cleaved off the intein-CBD fusion, with non-native C-terminal residues LEGSS) (Geobacter metallireducens GS-15); assay: SEC; Superdex 200 5/150 GL; 10 µl of 4 or 8 mg/ml protein injected; Kav against the standards ribonuclease A, ovalbumin and conalbumin
[2] = target: the molecule itself; assay: SEC-MALS; analytical gel filtration on Shodex 802.5 at 4°C in 100 mM NaCl, 0.025% NaN3, 100 mM Tris-HCl pH 7.5, static light scattering and refractive index detectors; Debye analysis; data not shown

Molecule | stoichiometry N [1] | stoichiometry N [2]
non-His-tagged Gme HNHE (Gmet_0936 cleaved off the intein-CBD fusion, with non-native C-terminal residues LEGSS) (enzyme) | 2 | 
B1 |  | 2
